Numbering of substitutions follows the chain as printed. Like-named read-outs stand apart in the source and are kept apart here. Each block holds one binder with its values, some of them ahead of it.
Assays:
Test in all cases: BLI
[1] = molecular target: T1, His-tagged cynomolgus VISTA extracellular domain protein (in house) (cynomolgus, UniProt A0A7N9IB00 33-194)
T1 chain: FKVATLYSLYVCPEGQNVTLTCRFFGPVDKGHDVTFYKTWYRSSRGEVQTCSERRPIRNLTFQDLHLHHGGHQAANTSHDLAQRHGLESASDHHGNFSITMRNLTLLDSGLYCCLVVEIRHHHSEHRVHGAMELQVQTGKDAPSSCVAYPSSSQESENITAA

[2] = molecular target: T2, His-tagged human VISTA extracellular domain protein (in house) (UniProt Q9H7M9 33-194)
T2 sequence (Q9H7M9 33-194): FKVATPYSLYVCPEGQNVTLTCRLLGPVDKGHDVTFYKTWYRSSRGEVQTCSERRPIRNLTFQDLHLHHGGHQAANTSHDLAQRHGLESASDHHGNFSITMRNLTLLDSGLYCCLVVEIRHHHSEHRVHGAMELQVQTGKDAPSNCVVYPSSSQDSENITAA

[3] = molecular target: T1, His-tagged cynomolgus VISTA …
[4] = molecular target: T2, His-tagged human VISTA extracellular …; remark: listed apart in the source
[5] = molecular target: T1, His-tagged cynomolgus VISTA …
[6] = molecular target: T2, His-tagged human VISTA extracellular …; remark: listed apart in the source
[7] = molecular target: T1, His-tagged cynomolgus VISTA …
[8] = molecular target: T2, His-tagged human VISTA extracellular …; remark: listed apart in the source
[9] = molecular target: T1, His-tagged cynomolgus VISTA …
[10] = molecular target: T2, His-tagged human VISTA extracellular …; remark: listed apart in the source

Kd [1]: 6.53 nM
Kd [2]: 0.011 nM
B1: anti-VISTA antibody 20E4 (antibody, V domains shown)
VH: QVQLQQSGAELMKPGASVKISCKATGYTFSSSWVEWVRQRPGHGLEWIGEIFPGSGSTHYNEKFKGKATFTADTSSNTAYLQLSSLTSDDSAVYYCARRPPGWFFDVWGAGTTVTVSS
VL: DIVMTQSHKFMSTSVGDRVSITCKASQDVSTDVAWYQQKPGQSPKLLIYSASYRYTGVPDRFTGSGSGTDFTFTISSVQAEDLAVYYCQQHYSTPWTFGGGTKLEIK

Kd [3]: 3.35 nM
Kd [4]: 0.00421 nM
B2: anti-VISTA antibody 17E9 (antibody, V domains shown)
VH: QVQLQQSGAELMKPGASVKISCTATGYTFSSCWIEWVKQRPGHGLEWLGEILPGSDYTNYNEKFKDKATFTADTSSDTAYMQLSSLTSEDSAVYYCARRPPGWYFDVWGAGTAVTVSS
VL: B1 VL with V33I, Y55F, Q90H, H91Q, E105D

Kd [5]: 2.57 nM
Kd [6]: 0.00278 nM
B3: anti-VISTA antibody 16A1 (antibody, V domains shown)
VH: B1 VH with V34I, R38K, T58L, H59N, Y60F
VL: B1 VL with S30T, A84T, T94S

The next lines start with the binder.

B4: anti-VISTA antibody 9F9 (antibody, V domains shown)
VH: QVQFQQSGAELARPGASVKLSCKASGYTFTGYWMQWVKQRPGQGLEWIGAIYPGDGDTRYSQKFKGKVTLTADKSSSTAYMQLSSLASEDSAVYYCARRDYGAWFAYWGQGTLVTVSA
VL: DIKVTQSPSSMYASLGERVTITCKASQDINSYLSWFQQKPGKSPKTLIYRANRLVDGVPSRFSGSGSGQDYSLTISSLDYEDMGIYYCLQYDEFPYTFGGGTKLEIK
Kd [7]: 7.37 nM
Kd [8]: 2.45 nM

B5: anti-VISTA antibody 15D11 (antibody, V domains shown)
VH: EVQLQQSGSELVKAGASVKLSCTASGFKIKDTFIHWVKQRPEQGLDWIGRIDPANGNSKYDPKFQGKATITADTSSNTAYLQLSSLTSEDTAVYYCARWPSNWEAMDYWGQGTSVTVSS
VL: QIVLTQSPAIMSASPGEKVTMTCSASSSVSYMYWYQQKPGSSPRLLIYDTSNLASGVPFRFSGSGSGTSYSLTISRMEAEDAATYYCQQWISYPLTFGTGTKLELK
Kd [9]: 0.00583 nM
Kd [10]: 12.5 nM

— patent US20240141048A1 (published 2024)
